Source: publication PMC10294659, “Cryo-EM Structures of the Klebsiella pneumoniae AcrB Multidrug Efflux Pump” (mBio, 2023)

What was measured:
[1] = molecular target: Klebsiella pneumoniae AcrB multidrug efflux pump (Klebsiella pneumoniae) (UniProt W9B4M6); test: cryo-EM structure; single-particle cryo-EM of 10 uM KpAcrB in lipidic nanodiscs (MSP 1E3D1, E. coli total extract lipid; 20 mM Tris-HCl pH 7.5, 100 mM NaCl); apo, and after 2 h with 500 uM erythromycin
[2] = molecular target: T1, KpAcrB (K. pneumoniae AcrB multidrug efflux pump) (Klebsiella pneumoniae, UniProt W9B4M6); test: microscale thermophoresis (label-free); cryo-EM structure of the complex also solved; type: binding
T1 construct: full-length, 1,048 residues (model 1-1033), N-terminal 6xHis tag, pET15b, expressed in E. coli BL21(DE3) delta-acrB; homotrimer; in DDM for MST, in MSP1E3D1 lipid nanodiscs for cryo-EM

Molecule | stoichiometry N [1] | Kd [2] [µM]
Klebsiella pneumoniae AcrB multidrug efflux pump (from UniProt W9B4M6 1-1048) (natural protein) | 3 | –
CC[C@H]1OC(=O)[C@H](C)[C@@H](O[C@H]2C[C@@](C)(OC)[C@@H](O)[C@H](C)O2)[C@H](C)[C@@H](O[C@@H]2O[C@H](C)C[C@H](N(C)C)[C@H]2O)[C@](C)(O)C[C@@H](C)C(=O)[C@H](C)[C@@H](O)[C@]1(C)O [erythromycin] | – | 14.4 ± 2.6
